Measurements: article PMC10397247

Tests used:
Assay in all cases: two-hybrid library CCmax;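 also: natural log of median RNA to DNA barcode read ratio; higher means stronger binding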
[1] = biological target: T1, 4H3410-AA; details: mean of both orientations
T1 chain: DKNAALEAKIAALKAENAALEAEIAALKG

[2] = biological target: T2, 4H3016-AA; details: mean of both orientations
T2 chain: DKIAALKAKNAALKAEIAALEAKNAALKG

[3] = biological target: T3, 4H909-AA; details: mean of both orientations
T3 chain: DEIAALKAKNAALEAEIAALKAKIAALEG

[4] = biological target: T4, 4H745-AA; details: mean of both orientations
T4 chain: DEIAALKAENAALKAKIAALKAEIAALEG

[5] = biological target: T5, 4H2473-AA; details: mean of both orientations
T5 chain: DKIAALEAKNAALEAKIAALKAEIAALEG

[6] = biological target: T6, 4H2865-AA; details: mean of both orientations
T6 chain: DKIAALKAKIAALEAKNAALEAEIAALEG

[7] = biological target: T7, 4H2725-AA; details: mean of both orientations
T7 chain: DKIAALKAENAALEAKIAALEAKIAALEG

[8] = biological target: T8, 4H310-AA; details: mean of both orientations
T8 chain: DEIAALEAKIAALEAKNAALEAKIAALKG

[9] = biological target: T9, 4H3120-AA; details: mean of both orientations
T9 chain: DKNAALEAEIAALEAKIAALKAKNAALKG

[10] = biological target: T10, 4H570-AA; details: mean of both orientations
T10 chain: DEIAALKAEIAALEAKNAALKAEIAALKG

[11] = biological target: T11, 4H3753-AA; details: mean of both orientations
T11 chain: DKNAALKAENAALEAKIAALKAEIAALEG

[12] = biological target: T12, 4H797-AA; details: mean of both orientations
T12 chain: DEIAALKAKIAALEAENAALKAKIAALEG

[13] = biological target: T13, 4H3395-AA; details: mean of both orientations
T13 chain: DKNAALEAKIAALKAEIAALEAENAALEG

[14] = biological target: T14, 4H629-AA; details: mean of both orientations
T14 chain: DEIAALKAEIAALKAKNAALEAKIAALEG

[15] = biological target: T15, 4H2438-AA
T15 chain: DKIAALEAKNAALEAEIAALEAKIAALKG

[16] = biological target: T16, 4H3590-AA; details: mean of both orientations
T16 chain: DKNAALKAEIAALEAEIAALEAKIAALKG

[17] = biological target: T17, 4H3165-AA; details: mean of both orientations
T17 chain: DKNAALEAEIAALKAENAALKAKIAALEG

[18] = biological target: T18, 4H3130-AA; details: mean of both orientations
T18 chain: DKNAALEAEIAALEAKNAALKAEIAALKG

[19] = biological target: T19, 4H850-AA; details: mean of both orientations
T19 chain: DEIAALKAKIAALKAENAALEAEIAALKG

[20] = biological target: T20, 4H458-AA; details: mean of both orientations
T20 chain: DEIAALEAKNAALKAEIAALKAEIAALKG

[21] = biological target: T21, 4H2698-AA; details: mean of both orientations
T21 chain: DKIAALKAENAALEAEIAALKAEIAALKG

[22] = biological target: T22, 4H891-AA; details: mean of both orientations
T22 chain: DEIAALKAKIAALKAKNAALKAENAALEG

[23] = biological target: T23, 4H930-AA; details: mean of both orientations
T23 chain: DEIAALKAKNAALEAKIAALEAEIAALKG

[24] = biological target: T24, 4H3865-AA; details: mean of both orientations
T24 chain: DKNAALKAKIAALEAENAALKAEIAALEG

[25] = biological target: T25, 4H94-AA; details: mean of both orientations
T25 chain: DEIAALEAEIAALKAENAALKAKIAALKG

[26] = biological target: T26, 4H2649-AA; details: mean of both orientations
T26 chain: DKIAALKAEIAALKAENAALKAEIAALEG

[27] = biological target: T27, 4H710-AA
T27 chain: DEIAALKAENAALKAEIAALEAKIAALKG

[28] = biological target: T28, 4H3697-AA; details: mean of both orientations
T28 chain: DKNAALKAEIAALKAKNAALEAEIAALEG

[29] = biological target: T29, 4H3381-AA; details: mean of both orientations
T29 chain: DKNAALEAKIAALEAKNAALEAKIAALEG

[30] = biological target: T30, 4H485-AA; details: mean of both orientations
T30 chain: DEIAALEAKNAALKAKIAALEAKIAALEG

[31] = biological target: T31, 4H536-AA; details: mean of both orientations
T31 chain: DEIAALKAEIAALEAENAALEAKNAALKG

[32] = biological target: T32, 4H3009-AA; details: mean of both orientations
T32 chain: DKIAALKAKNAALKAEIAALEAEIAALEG

[33] = biological target: T33, 4H3129-AA; details: mean of both orientations
T33 chain: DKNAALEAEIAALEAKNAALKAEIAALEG

[34] = biological target: T34, 4H3619-AA; details: mean of both orientations
T34 chain: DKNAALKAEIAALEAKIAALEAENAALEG

[35] = biological target: T35, 4H324-AA; details: mean of both orientations
T35 chain: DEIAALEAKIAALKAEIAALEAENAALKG

[36] = biological target: T36, 4H3974-AA; details: mean of both orientations
T36 chain: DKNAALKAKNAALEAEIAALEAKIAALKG

[37] = biological target: T37, 4H432-AA; details: mean of both orientations
T37 chain: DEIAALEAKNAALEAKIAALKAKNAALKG

[38] = biological target: T38, 4H446-AA; details: mean of both orientations
T38 chain: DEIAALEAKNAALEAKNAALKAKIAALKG

[39] = biological target: T39, 4H3414-AA; details: mean of both orientations
T39 chain: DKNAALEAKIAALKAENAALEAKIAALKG

[40] = biological target: T40, 4H464-AA; details: mean of both orientations
T40 chain: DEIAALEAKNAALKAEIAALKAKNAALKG

[41] = biological target: T41, 4H380-AA; details: mean of both orientations
T41 chain: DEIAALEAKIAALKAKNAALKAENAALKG

[42] = biological target: T42, 4H3782-AA; details: mean of both orientations
T42 chain: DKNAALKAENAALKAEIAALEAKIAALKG

[43] = biological target: T43, 4H3595-AA
T43 chain: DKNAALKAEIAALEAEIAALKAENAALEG

[44] = biological target: T44, 4H63-AA
T44 chain: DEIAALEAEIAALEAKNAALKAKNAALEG

[45] = biological target: T45, 4H341-AA; details: mean of both orientations
T45 chain: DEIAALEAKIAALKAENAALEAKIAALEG

[46] = biological target: T46, 4H2961-AA
T46 chain: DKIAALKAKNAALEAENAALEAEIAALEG

[47] = biological target: T47, 4H3969-AA; details: mean of both orientations
T47 chain: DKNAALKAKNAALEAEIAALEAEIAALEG

[48] = biological target: T48, 4H3629-AA
T48 chain: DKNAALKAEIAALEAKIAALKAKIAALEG

[49] = biological target: T49, 4H3094-AA; details: mean of both orientations
T49 chain: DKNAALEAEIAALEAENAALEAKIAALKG

[50] = biological target: T50, 4H3915-AA; details: mean of both orientations
T50 chain: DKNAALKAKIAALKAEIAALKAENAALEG

[51] = biological target: T51, 4H483-AA; details: mean of both orientations
T51 chain: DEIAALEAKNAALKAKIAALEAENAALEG

[52] = biological target: T52, 4H3777-AA; details: mean of both orientations
T52 chain: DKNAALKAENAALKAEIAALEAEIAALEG

[53] = biological target: T53, 4H3939-AA; details: mean of both orientations
T53 chain: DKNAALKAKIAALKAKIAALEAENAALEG

[54] = biological target: T54, 4H3049-AA; details: mean of both orientations
T54 chain: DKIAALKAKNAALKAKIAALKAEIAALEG

[55] = biological target: T55, 4H3449-AA; details: mean of both orientations
T55 chain: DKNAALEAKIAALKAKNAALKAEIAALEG

## DKIAALEAKNAALEAEIAALEAKIAALKG [4H2438-AA]
[1]
  interaction score: 0.0321
[2]
  interaction score: -0.613
[3]
  interaction score: 0.42
[4]
  interaction score: 1.6
[5]
  interaction score: 1.99
[6]
  interaction score: -0.236
[7]
  interaction score: 1.32
[8]
  interaction score: -0.376
[9]
  interaction score: -0.892
[10]
  interaction score: 0.233
[11]
  interaction score: 1.89
[12]
  interaction score: -1.67
[13]
  interaction score: 0.314
[14]
  interaction score: -1.42
[15]
  interaction score: 1.62
[16]
  interaction score: -0.136
[17]
  interaction score: -1.17
[18]
  interaction score: -0.561
[19]
  interaction score: 0.962
[20]
  interaction score: 2.03
[21]
  interaction score: 1.25
[22]
  interaction score: -1.67
[23]
  interaction score: 0.452
[24]
  interaction score: -1.16
[25]
  interaction score: 1.28
[26]
  interaction score: -0.664
[27]
  interaction score: -0.823
[28]
  interaction score: -1.23
[29]
  interaction score: -1.06
[30]
  interaction score: 2.05
[31]
  interaction score: -1.47
[32]
  interaction score: 1.88

## DKIAALKAKNAALEAENAALEAEIAALEG [4H2961-AA]
[33]
  interaction score: -1.5
[34]
  interaction score: -1.98
[35]
  interaction score: -1.69
[36]
  interaction score: -1.82
[37]
  interaction score: -0.0165
[38]
  interaction score: 1.97
[39]
  interaction score: -1.46
[40]
  interaction score: -0.618
[41]
  interaction score: -1.56
[42]
  interaction score: -1.44
[43]
  interaction score: -1.7
[44]
  interaction score: -1.2
[45]
  interaction score: -0.961
[46]
  interaction score: -1.84
[47]
  interaction score: -1.8
[48]
  interaction score: -1.26
[49]
  interaction score: -1.08
[50]
  interaction score: -1.91
[51]
  interaction score: -1.35
[52]
  interaction score: -1.97
[53]
  interaction score: -1.84
[54]
  interaction score: 1.02
[55]
  interaction score: -1.67
